Data as given in patent US20090311686A1 (GIVAUDAN, published 2009).
No end group written: not given here.

Columns and labels:
Assay in all cases: cell-based or functional assay
[1] = molecular target: T1, human calcium-sensing receptor (hCaSR), full length (human, UniProt Q8TE23 20-839)
T1 sequence: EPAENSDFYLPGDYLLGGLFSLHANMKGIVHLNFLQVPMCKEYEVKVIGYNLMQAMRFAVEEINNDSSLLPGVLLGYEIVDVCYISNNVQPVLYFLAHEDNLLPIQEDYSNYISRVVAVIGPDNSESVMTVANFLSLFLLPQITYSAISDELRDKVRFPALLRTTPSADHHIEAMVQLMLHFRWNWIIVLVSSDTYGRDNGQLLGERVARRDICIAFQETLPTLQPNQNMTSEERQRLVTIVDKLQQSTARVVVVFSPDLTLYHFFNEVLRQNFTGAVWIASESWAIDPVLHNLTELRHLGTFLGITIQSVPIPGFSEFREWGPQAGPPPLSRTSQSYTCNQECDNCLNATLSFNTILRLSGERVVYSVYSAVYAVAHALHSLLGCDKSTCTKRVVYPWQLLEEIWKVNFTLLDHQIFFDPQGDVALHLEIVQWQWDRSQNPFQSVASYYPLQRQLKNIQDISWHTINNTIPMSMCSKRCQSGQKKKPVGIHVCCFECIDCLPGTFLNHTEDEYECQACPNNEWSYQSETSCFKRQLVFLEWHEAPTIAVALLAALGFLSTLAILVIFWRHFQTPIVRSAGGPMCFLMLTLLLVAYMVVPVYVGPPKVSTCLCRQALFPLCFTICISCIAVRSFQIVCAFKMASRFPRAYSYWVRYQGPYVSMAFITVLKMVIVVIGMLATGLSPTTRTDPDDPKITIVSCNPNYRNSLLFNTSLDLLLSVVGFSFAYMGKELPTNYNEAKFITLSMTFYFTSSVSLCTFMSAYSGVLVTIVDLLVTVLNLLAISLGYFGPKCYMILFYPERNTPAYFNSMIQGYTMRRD

[2] = molecular target: human T1R2/T1R3 sweet receptor heterodimer (wildtype) (human, UniProt Q8TE23 20-839; Q7RTX0 21-852)
Sequence of human T1R2/T1R3 sweet receptor heterodimer (wildtype) (Q7RTX0 21-852 C757R limits assumed, one chain of several): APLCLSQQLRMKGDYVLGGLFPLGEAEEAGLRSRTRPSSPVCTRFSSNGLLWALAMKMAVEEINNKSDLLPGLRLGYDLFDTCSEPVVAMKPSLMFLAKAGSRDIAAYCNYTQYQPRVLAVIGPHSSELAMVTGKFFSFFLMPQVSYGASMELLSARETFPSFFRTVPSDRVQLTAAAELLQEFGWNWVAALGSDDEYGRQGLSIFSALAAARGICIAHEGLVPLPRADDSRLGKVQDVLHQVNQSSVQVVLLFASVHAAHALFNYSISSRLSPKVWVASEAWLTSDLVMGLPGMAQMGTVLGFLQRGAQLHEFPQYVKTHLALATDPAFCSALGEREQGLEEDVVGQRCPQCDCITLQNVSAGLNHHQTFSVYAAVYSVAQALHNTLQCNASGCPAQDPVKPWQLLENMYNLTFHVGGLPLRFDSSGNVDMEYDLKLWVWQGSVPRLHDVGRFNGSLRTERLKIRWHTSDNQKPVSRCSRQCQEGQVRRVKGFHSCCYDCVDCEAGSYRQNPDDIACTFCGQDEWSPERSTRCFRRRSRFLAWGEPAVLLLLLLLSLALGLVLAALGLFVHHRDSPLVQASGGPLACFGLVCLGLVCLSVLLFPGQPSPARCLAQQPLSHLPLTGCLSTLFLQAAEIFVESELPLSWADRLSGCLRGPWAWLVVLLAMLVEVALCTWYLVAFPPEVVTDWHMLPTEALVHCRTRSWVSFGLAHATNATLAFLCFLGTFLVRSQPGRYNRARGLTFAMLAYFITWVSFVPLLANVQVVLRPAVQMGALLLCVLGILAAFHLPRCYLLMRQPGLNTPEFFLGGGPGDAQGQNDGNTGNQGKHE

[3] = molecular target: T2, CSR:T1R2/CSR:T1R3 chimeric heterodimer (human)
T2 chain 1: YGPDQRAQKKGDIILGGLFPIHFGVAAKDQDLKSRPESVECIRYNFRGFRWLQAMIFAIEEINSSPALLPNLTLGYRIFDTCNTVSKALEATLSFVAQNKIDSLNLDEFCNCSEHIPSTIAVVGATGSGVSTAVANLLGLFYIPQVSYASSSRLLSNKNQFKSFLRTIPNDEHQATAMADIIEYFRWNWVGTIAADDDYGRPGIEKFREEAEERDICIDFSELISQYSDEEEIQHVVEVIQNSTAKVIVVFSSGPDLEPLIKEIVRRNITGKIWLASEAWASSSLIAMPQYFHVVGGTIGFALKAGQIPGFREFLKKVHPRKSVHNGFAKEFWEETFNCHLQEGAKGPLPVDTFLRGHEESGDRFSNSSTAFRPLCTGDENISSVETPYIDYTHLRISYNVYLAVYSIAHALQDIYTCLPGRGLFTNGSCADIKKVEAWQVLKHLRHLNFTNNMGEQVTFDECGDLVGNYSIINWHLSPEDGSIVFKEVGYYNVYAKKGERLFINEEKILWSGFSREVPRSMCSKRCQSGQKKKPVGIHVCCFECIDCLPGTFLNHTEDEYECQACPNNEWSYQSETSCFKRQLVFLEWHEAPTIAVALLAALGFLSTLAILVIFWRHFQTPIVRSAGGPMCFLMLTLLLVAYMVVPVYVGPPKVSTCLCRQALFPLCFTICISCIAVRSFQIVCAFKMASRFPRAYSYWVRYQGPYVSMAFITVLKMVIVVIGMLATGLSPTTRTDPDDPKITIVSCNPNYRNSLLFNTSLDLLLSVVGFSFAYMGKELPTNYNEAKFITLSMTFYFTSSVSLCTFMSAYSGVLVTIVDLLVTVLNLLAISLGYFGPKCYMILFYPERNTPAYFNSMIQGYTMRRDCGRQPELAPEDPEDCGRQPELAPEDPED
T2 chain 2: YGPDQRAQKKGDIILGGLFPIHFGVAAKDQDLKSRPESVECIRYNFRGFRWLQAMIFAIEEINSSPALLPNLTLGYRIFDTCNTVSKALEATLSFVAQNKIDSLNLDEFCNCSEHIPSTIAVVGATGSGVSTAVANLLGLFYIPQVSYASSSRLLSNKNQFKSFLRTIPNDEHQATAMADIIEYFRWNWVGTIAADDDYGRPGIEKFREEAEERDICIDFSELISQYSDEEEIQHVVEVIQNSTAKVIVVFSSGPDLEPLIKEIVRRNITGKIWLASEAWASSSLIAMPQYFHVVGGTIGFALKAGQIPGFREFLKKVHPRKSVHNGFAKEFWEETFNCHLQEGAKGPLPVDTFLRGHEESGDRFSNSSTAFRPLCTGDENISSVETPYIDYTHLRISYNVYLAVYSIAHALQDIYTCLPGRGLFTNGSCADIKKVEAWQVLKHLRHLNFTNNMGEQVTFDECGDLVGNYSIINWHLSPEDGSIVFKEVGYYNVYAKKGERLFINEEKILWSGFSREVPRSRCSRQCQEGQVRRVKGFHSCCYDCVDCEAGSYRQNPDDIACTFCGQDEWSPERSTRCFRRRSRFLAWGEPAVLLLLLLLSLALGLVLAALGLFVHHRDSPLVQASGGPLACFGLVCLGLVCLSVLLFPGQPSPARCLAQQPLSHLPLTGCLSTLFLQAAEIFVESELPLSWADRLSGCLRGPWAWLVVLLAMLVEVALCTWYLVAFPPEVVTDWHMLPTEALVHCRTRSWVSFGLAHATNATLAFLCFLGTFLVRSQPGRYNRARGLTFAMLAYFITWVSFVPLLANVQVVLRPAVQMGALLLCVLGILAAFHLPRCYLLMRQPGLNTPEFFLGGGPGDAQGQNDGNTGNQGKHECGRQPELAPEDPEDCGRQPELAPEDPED

B1: Aspartame (aspartyl-phenylalanine-1-methyl ester, a dipeptide) (peptide)
peptide: Asp-Phe-OMe
With B1 the “net increase in fluorescence over baseline (Fluo-4 calcium assay, AVG of six replicates), aspartame 0.85 mM” value [1] was 41 RFU, the “net increase in fluorescence over baseline (Fluo-4 calcium assay, AVG of six replicates), aspartame 0.85 mM” value [2] was 531 RFU and the “net increase in fluorescence over baseline (Fluo-4 calcium assay, AVG of six replicates), aspartame 0.85 mM” value [3] was 72 RFU.
